Tests used:
Experiment in all cases: IP/MS, LZTR1 wild type-FLAG, U87
[1] = molecular target: CDC42BPB (human, UniProt Q9Y5S2 1-1711)
Summary of the method: (§1)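 Gel slices were reduced with 5 mM DTT, alkylated with 11 mM IAA and digested overnight at 37° C. with trypsin. Peptides were analysed on an Orbitrap Fusion Tribrid by LC-MS/MS.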

[2] = molecular target: KDM5C (human, UniProt P41229 1-1560, limits assumed)
Summary of the method: as §1

[3] = molecular target: MYO10 (human, UniProt Q9HD67 1-2058, limits assumed)
MYO10, sequence (Q9HD67 whole entry): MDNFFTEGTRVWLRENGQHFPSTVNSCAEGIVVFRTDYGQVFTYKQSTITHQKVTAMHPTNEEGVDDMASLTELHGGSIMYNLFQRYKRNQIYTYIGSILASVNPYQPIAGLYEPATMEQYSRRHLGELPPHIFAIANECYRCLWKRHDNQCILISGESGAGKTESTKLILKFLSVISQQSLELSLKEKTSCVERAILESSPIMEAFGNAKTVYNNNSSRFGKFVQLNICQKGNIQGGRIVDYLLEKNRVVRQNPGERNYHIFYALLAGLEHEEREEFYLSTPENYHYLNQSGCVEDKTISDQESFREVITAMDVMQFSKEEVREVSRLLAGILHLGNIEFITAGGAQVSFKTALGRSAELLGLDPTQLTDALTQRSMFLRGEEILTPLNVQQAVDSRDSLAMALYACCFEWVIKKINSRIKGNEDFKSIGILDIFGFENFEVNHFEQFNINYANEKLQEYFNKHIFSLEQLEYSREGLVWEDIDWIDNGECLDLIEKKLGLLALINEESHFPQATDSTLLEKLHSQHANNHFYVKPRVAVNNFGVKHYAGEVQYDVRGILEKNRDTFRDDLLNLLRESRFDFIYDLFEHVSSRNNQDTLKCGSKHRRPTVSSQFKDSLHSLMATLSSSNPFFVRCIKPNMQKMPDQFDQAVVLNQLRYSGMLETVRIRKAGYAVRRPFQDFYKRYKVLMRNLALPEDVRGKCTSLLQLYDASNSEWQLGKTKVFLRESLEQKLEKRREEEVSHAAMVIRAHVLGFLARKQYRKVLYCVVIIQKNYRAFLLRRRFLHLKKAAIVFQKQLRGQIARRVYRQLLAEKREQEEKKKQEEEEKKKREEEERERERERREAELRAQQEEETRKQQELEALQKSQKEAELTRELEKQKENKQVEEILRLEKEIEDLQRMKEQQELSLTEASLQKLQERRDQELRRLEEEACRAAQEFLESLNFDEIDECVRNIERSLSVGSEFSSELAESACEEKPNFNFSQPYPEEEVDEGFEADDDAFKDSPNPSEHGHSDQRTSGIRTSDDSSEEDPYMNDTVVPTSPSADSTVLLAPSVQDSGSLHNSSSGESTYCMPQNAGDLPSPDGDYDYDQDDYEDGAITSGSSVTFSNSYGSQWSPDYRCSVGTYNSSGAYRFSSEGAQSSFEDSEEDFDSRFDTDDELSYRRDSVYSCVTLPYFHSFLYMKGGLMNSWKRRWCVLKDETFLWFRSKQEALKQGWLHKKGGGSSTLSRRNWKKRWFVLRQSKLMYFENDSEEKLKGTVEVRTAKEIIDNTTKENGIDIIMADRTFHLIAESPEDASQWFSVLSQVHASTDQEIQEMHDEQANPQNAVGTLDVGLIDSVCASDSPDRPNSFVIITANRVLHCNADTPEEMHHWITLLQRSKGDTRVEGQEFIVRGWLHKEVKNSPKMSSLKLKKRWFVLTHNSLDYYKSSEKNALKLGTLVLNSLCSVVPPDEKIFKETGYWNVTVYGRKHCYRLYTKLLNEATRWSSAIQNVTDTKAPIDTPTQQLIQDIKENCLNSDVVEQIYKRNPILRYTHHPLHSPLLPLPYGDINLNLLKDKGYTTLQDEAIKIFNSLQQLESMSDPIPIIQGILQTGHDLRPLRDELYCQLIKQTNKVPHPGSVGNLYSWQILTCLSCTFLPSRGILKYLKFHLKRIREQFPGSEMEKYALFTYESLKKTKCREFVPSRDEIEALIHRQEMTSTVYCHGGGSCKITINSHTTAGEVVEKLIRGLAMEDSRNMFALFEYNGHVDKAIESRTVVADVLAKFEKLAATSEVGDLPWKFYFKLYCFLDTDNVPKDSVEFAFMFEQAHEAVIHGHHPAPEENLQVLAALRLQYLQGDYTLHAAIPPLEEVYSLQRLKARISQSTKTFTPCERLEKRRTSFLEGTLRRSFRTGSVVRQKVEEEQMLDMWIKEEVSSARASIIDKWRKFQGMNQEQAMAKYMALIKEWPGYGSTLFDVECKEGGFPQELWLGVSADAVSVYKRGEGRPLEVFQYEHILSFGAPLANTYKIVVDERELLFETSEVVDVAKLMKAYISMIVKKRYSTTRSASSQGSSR
Summary of the method: as §1

[4] = molecular target: THADA (human, UniProt Q6YHU6 1-1953, limits assumed)
THADA, sequence (Q6YHU6 whole entry): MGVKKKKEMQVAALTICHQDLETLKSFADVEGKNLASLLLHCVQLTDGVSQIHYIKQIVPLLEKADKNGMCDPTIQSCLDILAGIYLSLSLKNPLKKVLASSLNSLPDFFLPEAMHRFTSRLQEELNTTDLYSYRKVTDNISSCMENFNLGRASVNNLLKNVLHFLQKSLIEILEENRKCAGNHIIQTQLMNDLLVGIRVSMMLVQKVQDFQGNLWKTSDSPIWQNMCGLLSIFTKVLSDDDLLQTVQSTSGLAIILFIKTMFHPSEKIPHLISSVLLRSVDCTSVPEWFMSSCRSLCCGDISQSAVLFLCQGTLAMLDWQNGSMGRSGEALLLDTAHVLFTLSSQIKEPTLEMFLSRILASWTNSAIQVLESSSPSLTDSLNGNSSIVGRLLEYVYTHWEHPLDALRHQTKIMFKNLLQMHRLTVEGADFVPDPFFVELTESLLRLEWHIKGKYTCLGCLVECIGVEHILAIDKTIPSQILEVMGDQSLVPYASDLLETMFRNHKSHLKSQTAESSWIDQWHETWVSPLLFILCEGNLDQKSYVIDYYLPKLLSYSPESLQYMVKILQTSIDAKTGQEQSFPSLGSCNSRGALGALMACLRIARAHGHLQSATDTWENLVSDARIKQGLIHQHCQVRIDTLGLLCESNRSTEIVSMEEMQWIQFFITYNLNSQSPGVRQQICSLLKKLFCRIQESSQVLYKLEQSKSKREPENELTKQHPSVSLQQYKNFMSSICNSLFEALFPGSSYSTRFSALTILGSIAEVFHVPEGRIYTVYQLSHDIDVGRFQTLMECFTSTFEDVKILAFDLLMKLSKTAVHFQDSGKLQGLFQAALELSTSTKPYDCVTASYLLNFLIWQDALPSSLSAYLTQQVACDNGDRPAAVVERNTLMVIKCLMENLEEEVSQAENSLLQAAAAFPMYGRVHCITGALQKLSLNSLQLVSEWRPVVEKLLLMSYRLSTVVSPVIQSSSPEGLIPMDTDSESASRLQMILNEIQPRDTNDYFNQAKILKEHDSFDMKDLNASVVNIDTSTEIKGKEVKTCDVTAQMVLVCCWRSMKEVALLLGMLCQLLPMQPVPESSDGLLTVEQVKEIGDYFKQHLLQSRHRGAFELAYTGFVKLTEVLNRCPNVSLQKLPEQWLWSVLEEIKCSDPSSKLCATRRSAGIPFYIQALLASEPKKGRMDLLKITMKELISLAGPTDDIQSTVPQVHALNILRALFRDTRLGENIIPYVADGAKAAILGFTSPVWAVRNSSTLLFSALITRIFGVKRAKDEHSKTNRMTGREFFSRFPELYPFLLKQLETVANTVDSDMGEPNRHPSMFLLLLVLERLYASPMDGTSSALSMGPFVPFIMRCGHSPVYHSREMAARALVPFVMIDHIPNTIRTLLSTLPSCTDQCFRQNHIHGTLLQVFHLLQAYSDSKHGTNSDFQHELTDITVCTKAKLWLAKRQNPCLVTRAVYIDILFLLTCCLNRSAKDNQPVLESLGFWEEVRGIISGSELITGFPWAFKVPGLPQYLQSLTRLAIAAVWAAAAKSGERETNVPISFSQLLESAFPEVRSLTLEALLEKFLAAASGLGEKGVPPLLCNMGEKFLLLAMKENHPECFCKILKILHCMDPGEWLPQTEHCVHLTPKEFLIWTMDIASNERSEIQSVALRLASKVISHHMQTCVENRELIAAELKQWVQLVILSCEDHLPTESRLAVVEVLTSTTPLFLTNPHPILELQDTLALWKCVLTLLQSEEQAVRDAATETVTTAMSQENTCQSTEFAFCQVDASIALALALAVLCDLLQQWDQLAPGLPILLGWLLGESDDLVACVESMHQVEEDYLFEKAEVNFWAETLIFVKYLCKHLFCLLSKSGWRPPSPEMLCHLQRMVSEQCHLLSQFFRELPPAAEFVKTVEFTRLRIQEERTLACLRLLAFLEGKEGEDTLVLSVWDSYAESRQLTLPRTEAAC
Summary of the method: as §1

[5] = molecular target: T1, NCAPD3 (human, UniProt P42695 1-1498)
T1 sequence (looked up): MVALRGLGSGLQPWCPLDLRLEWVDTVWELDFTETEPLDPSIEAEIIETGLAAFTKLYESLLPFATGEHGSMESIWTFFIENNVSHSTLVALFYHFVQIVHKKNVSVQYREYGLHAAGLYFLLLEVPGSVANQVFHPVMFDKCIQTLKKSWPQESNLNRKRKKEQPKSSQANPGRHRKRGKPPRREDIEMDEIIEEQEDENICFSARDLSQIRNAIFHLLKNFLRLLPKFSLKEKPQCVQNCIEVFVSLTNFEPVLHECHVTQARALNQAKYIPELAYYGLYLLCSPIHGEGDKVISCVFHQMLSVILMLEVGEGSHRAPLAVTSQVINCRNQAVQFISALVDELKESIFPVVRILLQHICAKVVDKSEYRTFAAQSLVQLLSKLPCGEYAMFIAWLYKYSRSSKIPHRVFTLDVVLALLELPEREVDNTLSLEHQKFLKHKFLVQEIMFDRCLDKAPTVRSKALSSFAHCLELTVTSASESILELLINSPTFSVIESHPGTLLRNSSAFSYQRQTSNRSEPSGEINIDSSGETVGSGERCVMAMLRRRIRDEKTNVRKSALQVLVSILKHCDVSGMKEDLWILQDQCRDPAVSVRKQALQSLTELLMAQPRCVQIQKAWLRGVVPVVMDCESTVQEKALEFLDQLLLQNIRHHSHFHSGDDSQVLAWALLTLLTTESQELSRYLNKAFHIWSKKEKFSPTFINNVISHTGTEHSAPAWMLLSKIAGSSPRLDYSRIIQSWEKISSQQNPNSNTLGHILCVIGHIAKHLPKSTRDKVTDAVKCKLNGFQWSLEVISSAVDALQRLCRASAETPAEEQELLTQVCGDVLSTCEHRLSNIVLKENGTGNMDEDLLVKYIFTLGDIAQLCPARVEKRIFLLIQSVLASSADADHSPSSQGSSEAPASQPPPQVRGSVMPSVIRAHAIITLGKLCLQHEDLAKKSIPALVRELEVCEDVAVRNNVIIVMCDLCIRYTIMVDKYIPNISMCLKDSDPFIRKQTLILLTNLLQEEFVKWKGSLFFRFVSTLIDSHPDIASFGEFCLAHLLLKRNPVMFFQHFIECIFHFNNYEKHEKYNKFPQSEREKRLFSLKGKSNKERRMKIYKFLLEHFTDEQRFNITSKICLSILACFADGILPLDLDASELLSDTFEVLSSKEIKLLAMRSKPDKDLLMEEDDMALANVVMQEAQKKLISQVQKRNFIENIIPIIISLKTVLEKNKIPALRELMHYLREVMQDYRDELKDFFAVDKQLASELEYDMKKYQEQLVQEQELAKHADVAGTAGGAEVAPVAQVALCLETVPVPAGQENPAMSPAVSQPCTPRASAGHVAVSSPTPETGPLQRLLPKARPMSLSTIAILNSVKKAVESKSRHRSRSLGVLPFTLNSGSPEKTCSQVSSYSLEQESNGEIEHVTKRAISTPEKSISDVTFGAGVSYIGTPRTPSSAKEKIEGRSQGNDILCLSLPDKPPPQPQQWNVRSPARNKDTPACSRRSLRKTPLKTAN
Summary of the method: as §1

[6] = molecular target: PAPPA (human, UniProt Q13219 82-1627)
Summary of the method: as §1

Measured: binding result

B1: LZTR1-FLAG (other, human, UniProt Q8N653 1-840, looked up)
chain: MAGPGSTGGQIGAAALAGGARSKVAPSVDFDHSCSDSVEYLTLNFGPFETVHRWRRLPPCDEFVGARRSKHTVVAYKDAIYVFGGDNGKTMLNDLLRFDVKDCSWCRAFTTGTPPAPRYHHSAVVYGSSMFVFGGYTGDIYSNSNLKNKNDLFEYKFATGQWTEWKIEGRLPVARSAHGATVYSDKLWIFAGYDGNARLNDMWTIGLQDRELTCWEEVAQSGEIPPSCCNFPVAVCRDKMFVFSGQSGAKITNNLFQFEFKDKTWTRIPTEHLLRGSPPPPQRRYGHTMVAFDRHLYVFGGAADNTLPNELHCYDVDFQTWEVVQPSSDSEVGGAEVPERACASEEVPTLTYEERVGFKKSRDVFGLDFGTTSAKQPTQPASELPSGRLFHAAAVISDAMYIFGGTVDNNIRSGEMYRFQFSCYPKCTLHEDYGRLWESRQFCDVEFVLGEKEECVQGHVAIVTARSRWLRRKITQARERLAQKLEQEAAPVPREAPGVAAGGARPPLLHVAIREAEARPFEVLMQFLYTDKIKYPRKGHVEDVLLIMDVYKLALSFQLCRLEQLCRQYIEASVDLQNVLVVCESAARLQLSQLKEHCLNFVVKESHFNQVIMMKEFERLSSPLIVEIVRRKQQPPPRTPLDQPVDIGTSLIQDMKAYLEGAGAEFCDITLLLDGHPRPAHKAILAARSSYFEAMFRSFMPEDGQVNISIGEMVPSRQAFESMLRYIYYGEVNMPPEDSLYLFAAPYYYGFYNNRLQAYCKQNLEMNVTVQNVLQILEAADKTQALDMKRHCLHIIVHQFTKVSKLPTLRSLSQQLLLDIIDSLASHISDKQCAELGADI
notes: Expressed in HEK 293T, HeLa or U87 cells; used as cell lysate; also called LZTR1 wild type-FLAG; LZTR1 WT; not shown: FLAG tag at the C-terminus
binds: [1] | [2] | [3] | [4] | [5] | [6]
